In patent US20170355769A1 (AbbVie / Abbott, published 2017):
Read-outs that look alike come from different tables or passages of the source.

How the values were obtained:
[1] = target: T1, Cynomolgous B7-H3 on cells (cynomolgus); assay: FACS (Example 6 method)
T1 construct: whole, on cells; also called cyB7-H3; cyno B7-H3
Experimental: (§1) Cells were harvested from flasks when approximately 80% confluent using Gibco® Cell Dissociation Buffer. Cells were washed once in PBS/1% FBS (FACS buffer) then resuspended at 2.5×10⁶ cells/mL in FACS buffer. 100 μL of cells/well were added to a round bottom 96-well plate. 10 μL of a 10× concentration of mAb/ADC (final concentrations are indicated the figures). Wells were washed twice with FACS buffer and resuspended in 50 μL of secondary Ab (AlexaFluor 488) diluted in FACS buffer. The plate was incubated at 4° C. for one hour and washed twice with FACS buffer. Cells were resuspended in 100 μL of PBS/1% formaldehyde and analyzed on a Becton Dickinson LSRII flow cytometer. Data was analyzed using WinList flow cytometry analysis software.
Nine huAb13 variants described in Examples 17 and 18 were generated and tested for binding to B7-H3 by FACS (according to methods described in Example 6).

[2] = target: T2, hB7-H3 (ELISA antigen of Tables 17 and 20) (human, UniProt Q5ZPR3 29-466, limits assumed); assay: ELISA
T2 sequence: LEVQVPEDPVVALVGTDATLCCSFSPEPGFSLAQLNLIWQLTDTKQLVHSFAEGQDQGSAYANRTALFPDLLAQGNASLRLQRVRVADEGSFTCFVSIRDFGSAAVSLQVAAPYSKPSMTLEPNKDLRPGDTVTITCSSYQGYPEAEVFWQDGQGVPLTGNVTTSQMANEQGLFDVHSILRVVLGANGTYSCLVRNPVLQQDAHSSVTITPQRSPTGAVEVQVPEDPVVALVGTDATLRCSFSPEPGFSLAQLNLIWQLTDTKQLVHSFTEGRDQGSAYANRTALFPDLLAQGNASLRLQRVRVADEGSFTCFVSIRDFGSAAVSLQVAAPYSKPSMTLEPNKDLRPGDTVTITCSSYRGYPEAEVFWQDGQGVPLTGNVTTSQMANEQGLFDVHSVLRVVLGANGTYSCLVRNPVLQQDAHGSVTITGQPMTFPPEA

[3] = target: T3, Human full length B7-H3 (human, UniProt Q5ZPR3 29-534); assay: cell-based or functional assay
T3 sequence: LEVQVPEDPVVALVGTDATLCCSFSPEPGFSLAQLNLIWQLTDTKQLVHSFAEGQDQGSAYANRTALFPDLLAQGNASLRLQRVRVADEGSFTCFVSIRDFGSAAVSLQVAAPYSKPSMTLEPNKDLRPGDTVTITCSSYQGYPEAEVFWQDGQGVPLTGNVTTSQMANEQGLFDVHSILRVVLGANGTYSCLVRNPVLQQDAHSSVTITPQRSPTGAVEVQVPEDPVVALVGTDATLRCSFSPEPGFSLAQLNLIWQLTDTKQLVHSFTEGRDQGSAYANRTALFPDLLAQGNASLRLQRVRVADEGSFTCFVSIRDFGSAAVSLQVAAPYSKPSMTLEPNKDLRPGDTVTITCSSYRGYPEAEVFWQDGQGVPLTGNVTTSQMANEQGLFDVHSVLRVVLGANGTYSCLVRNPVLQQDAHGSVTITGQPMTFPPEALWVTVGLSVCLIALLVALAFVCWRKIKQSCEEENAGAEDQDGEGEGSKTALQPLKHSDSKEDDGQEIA

[4] = target: T1, Cynomolgous B7-H3 on cells; assay: FACS, 3T12 transfectants
[5] = target: T3, Human full length B7-H3; assay: FACS, 3T12 transfectants
[6] = target: T2, hB7-H3 (ELISA antigen of Tables 17 and …); assay: ELISA; remark: listed apart in the source
[7] = target: T3, Human full length B7-H3; assay: FACS (Example 6 method)
Experimental: as §1
These variants were further characterized for binding by SPR and as ADCs conjugated to the Bcl-xL inhibitor synthon (linker warhead) CZ. […] An ADC comprising chAb3 conjugated to synthon CZ was used as a control.

[8] = target: T3, Human full length B7-H3; assay: FACS, 3T12 transfectants; remark: listed apart in the source
[9] = target: T3, Human full length B7-H3; assay: FACS

B1: huAb13v1-CZ (antibody, human IgG1, kappa, L234A L235A, V domains shown)
VH: EVQLQESGPGLVKPSETLSLTCAVTGYSITSGYSWHWIRQFPGNGLEWMGYIHSSGSTNYNPSLKSRISISRDTSKNQFFLKLSSVTAADTAVYYCAGYDDYFEYWGQGTTVTVSS
VL: DIQMTQSPSSLSASVGDRVTITCKASQNVGFNVAWYQQKPGKSPKALIYSASYRYSGVPSRFSGSGSGTDFTLTISSLQPEDFAEYFCQQYNWYPFTFGQGTKLEIKR
modifications: synthon CZ on reduced interchain Cys
notes: ADC, DAR 4.0
EC50 [1]: 10 nM | EC50 [2]: 0.12 nM | EC50 nM H1650 (tumor cell cytotoxicity) [3]: 0.18 nM

B2: huAb3v2.6-CZ (antibody, human IgG1, kappa, L234A L235A, V domains shown)
VH: EVQLVQSGAEVKKPGSSVKVSCKASGYTFSSYWMHWVRQAPGQGLEWIGLIHPESGSTNYNEMFKNRATLTVDRSTSTAYMELSSLRSEDTAVYYCAGGGRLYFDYWGQGTTVTVSS
VL: DIVMTQSPLSLPVTPGEPASISCRSSQSLVHSNQDTYLRWYLQKPGQSPQLLIYKVSNRFSGVPDRFSGSGSGTDFTLKISRVEAEDVGVYYCSQSTHVPYTFGGGTKVEIKR
modifications: synthon CZ on reduced interchain Cys
EC50 [4]: 3.31 nM | EC50 [5]: 5.64 nM | EC50 [6]: 0.09 nM | EC50 nM H1650 (tumor cell cytotoxicity) [3]: 0.4 nM

B3: huAb3v2-CZ (antibody, V domains shown)
VH: EVQLVQSGAEVKKPGSSVKVSCKASGYTFSSYWMHWVRQAPGQGLEWIGLIHPDSGSTNYNEMFKNRATLTVDRSTSTAYMELSSLRSEDTAVYYCAGGGRLYFDYWGQGTTVTVSS
VL: DIVMTQSPLSLPVTPGEPASISCRSSQSLVHSNGDTYLRWYLQKPGQSPQLLIYKVSNRFSGVPDRFSGSGSGTDFTLKISRVEAEDVGVYYCSQSTHVPYTFGGGTKVEIK
modifications: synthon CZ on reduced interchain Cys
EC50 [4]: 2.87 nM | EC50 [5]: 5.11 nM | EC50 [6]: 0.44 nM | EC50 [7]: 0.73 nM

B4: huAb3v2.2 (antibody, V domains shown)
VH: EVQLVQSGAEVKKPGSSVKVSCKASGYTFSSYWMHWVRQAPGQGLEWIGLIHPWSGSTNYNEMFKNRATLTVDRSTSTAYMELSSLRSEDTAVYYCAGGGRLYFDYWGQGTTVTVSS
VL: DIVMTQSPLSLPVTPGEPASISCRSSQSLVHSNRDTYLRWYLQKPGQSPQLLIYKVSNRFSGVPDRFSGSGSGTDFTLKISRVEAEDVGVYYCSQSTHVPYTFGGGTKVEIK
notes: humanized IgG
binding result [8]: binds

B5: huAb3v2.3 (antibody, V domains shown)
VH: EVQLVQSGAEVKKPGSSVKVSCKASGYTFSSYWMHWVRQAPGQGLEWIGLIHPWSGSTNYNEMFKNRATLTVDRSTSTAYMELSSLRSEDTAVYYCAGGGRLYFDYWGQGTTVTVSS
VL: DIVMTQSPLSLPVTPGEPASISCRSSQSLVHSNQDTYLRWYLQKPGQSPQLLIYKVSNRFSGVPDRFSGSGSGTDFTLKISRVEAEDVGVYYCSQSTHVPYTFGGGTKVEIK
notes: humanized IgG
binding result [8]: binds

B6: huAb3v2.8 (antibody, V domains shown)
VH: EVQLVQSGAEVKKPGSSVKVSCKASGYTFSSYWMHWVRQAPGQGLEWIGLIHPISGSTNYNEMFKNRATLTVDRSTSTAYMELSSLRSEDTAVYYCAGGGRLYFDYWGQGTTVTVSS
VL: DIVMTQSPLSLPVTPGEPASISCRSSQSLVHSNRDTYLRWYLQKPGQSPQLLIYKVSNRFSGVPDRFSGSGSGTDFTLKISRVEAEDVGVYYCSQSTHVPYTFGGGTKVEIK
notes: humanized IgG
binding result [8]: binds

B7: huAb3v2.9 (antibody, V domains shown)
VH: EVQLVQSGAEVKKPGSSVKVSCKASGYTFSSYWMHWVRQAPGQGLEWIGLIHPISGSTNYNEMFKNRATLTVDRSTSTAYMELSSLRSEDTAVYYCAGGGRLYFDYWGQGTTVTVSS
VL: DIVMTQSPLSLPVTPGEPASISCRSSQSLVHSNQDTYLRWYLQKPGQSPQLLIYKVSNRFSGVPDRFSGSGSGTDFTLKISRVEAEDVGVYYCSQSTHVPYTFGGGTKVEIK
notes: humanized IgG
binding result [8]: binds

B8: huAb3v2.9-CZ (antibody, V domains shown)
VH: EVQLVQSGAEVKKPGSSVKVSCKASGYTFSSYWMHWVRQAPGQGLEWIGLIHPISGSTNYNEMFKNRATLTVDRSTSTAYMELSSLRSEDTAVYYCAGGGRLYFDYWGQGTTVTVSS
VL: DIVMTQSPLSLPVTPGEPASISCRSSQSLVHSNQDTYLRWYLQKPGQSPQLLIYKVSNRFSGVPDRFSGSGSGTDFTLKISRVEAEDVGVYYCSQSTHVPYTFGGGTKVEIK
modifications: synthon CZ on reduced interchain Cys
notes: ADC, DAR 2.7
EC50 [4]: 4.64 nM | EC50 [5]: 6.16 nM | EC50 [6]: 0.16 nM

B9: huAb13v9 (antibody, V domains shown)
VH: EVQLQESGPGLVKPSETLSLTCAVSGYSITSGYSWHWIRQPPGNGLEWMGYIHSSGSTNYNPSLKSRITISRDTSKNQFSLKLSSVTAADTAVYYCARYDDYFEYWGQGTTVTVSS
VL: DIQMTQSPSSLSASVGDRVTITCKASQNVGFNVAWYQQKPGKAPKLLIYSASYRYSGVPSRFSGSGSGTDFTLTISSLQPEDFATYFCQQYNWYPFTFGQGTKLEIK
notes: humanized IgG
binding result [9]: no binding

B10: huAb13v2 (antibody, V domains shown)
VH: EVQLQESGPGLVKPSETLSLTCAVSGYSITSGYSWHWIRQPPGKGLEWIGYIHSSGSTNYNPSLKSRVTISVDTSKNQFSLKLSSVTAADTAVYYCARYDDYFEYWGQGTTVTVSS
VL: DIQMTQSPSSLSASVGDRVTITCKASQNVGFNVAWYQQKPGKAPKLLIYSASYRYSGVPSRFSGSGSGTDFTLTISSLQPEDFATYYCQQYNWYPFTFGQGTKLEIK
notes: humanized IgG
binding result [9]: no binding

B11: huAb13v3 (antibody, V domains shown)
VH: EVQLQESGPGLVKPSETLSLTCAVSGYSITSGYSWHWIRQPPGKGLEWIGYIHSSGSTNYNPSLKSRVTISVDTSKNQFSLKLSSVTAADTAVYYCARYDDYFEYWGQGTTVTVSS
VL: DIQMTQSPSSLSASVGDRVTITCKASQNVGFNVAWYQQKPGKSPKALIYSASYRYSGVPSRFSGSGSGTDFTLTISSLQPEDFAEYFCQQYNWYPFTFGQGTKLEIK
notes: humanized IgG
binding result [9]: no binding

B12: huAb13v4 (antibody, V domains shown)
VH: EVQLQESGPGLVKPSETLSLTCAVSGYSITSGYSWHWIRQPPGKGLEWIGYIHSSGSTNYNPSLKSRVTISVDTSKNQFSLKLSSVTAADTAVYYCARYDDYFEYWGQGTTVTVSS
VL: DIQMTQSPSSLSASVGDRVTITCKASQNVGFNVAWYQQKPGKAPKLLIYSASYRYSGVPSRFSGSGSGTDFTLTISSLQPEDFATYFCQQYNWYPFTFGQGTKLEIK
notes: humanized IgG
binding result [9]: no binding

B13: huAb13v7 (antibody, V domains shown)
VH: EVQLQESGPGLVKPSETLSLTCAVSGYSITSGYSWHWIRQPPGNGLEWMGYIHSSGSTNYNPSLKSRITISRDTSKNQFSLKLSSVTAADTAVYYCARYDDYFEYWGQGTTVTVSS
VL: DIQMTQSPSSLSASVGDRVTITCKASQNVGFNVAWYQQKPGKAPKLLIYSASYRYSGVPSRFSGSGSGTDFTLTISSLQPEDFATYYCQQYNWYPFTFGQGTKLEIK
notes: humanized IgG
binding result [9]: no binding

B14: huAb13v8 (antibody, V domains shown)
VH: EVQLQESGPGLVKPSETLSLTCAVSGYSITSGYSWHWIRQPPGNGLEWMGYIHSSGSTNYNPSLKSRITISRDTSKNQFSLKLSSVTAADTAVYYCARYDDYFEYWGQGTTVTVSS
VL: DIQMTQSPSSLSASVGDRVTITCKASQNVGFNVAWYQQKPGKSPKALIYSASYRYSGVPSRFSGSGSGTDFTLTISSLQPEDFAEYFCQQYNWYPFTFGQGTKLEIK
notes: humanized IgG
binding result [9]: no binding
